Assay results: publication PMC11573789

B1: Upf1-SmBiT [S. cerevisiae] / Pat1 [S. cerevisiae] (parent)
chain 1: MVGSGSHTPYDISNSPSDVNVQPATQLNSTLVEDDDVDNQLFEEAQVTETGFRSPSASDNSCAYCGIDSAKCVIKCNSCKKWFCNTKNGTSSSHIVNHLVLSHHNVVSLHPDSDLGDTVLECYNCGRKNVFLLGFVSAKSEAVVVLLCRIPCAQTKNANWDTDQWQPLIEDRQLLSWVAEQPTEEEKLKARLITPSQISKLEAKWRSNKDATINDIDAPEEQEAIPPLLLRYQDAYEYQRSYGPLIKLEADYDKQLKESQALEHISVSWSLALNNRHLASFTLSTFESNELKVAIGDEMILWYSGMQHPDWEGRGYIVRLPNSFQDTFTLELKPSKTPPPTHLTTGFTAEFIWKGTSYDRMQDALKKFAIDKKSISGYLYYKILGHQVVDISFDVPLPKEFSIPNFAQLNSSQSNAVSHVLQRPLSLIQGPPGTGKTVTSATIVYHLSKIHKDRILVCAPSNVAVDHLAAKLRDLGLKVVRLTAKSREDVESSVSNLALHNLVGRGAKGELKNLLKLKDEVGELSASDTKRFVKLVRKTEAEILNKADVVCCTCVGAGDKRLDTKFRTVLIDESTQASEPECLIPIVKGAKQVILVGDHQQLGPVILERKAADAGLKQSLFERLISLGHVPIRLEVQYRMNPYLSEFPSNMFYEGSLQNGVTIEQRTVPNSKFPWPIRGIPMMFWANYGREEISANGTSFLNRIEAMNCERIITKLFRDGVKPEQIGVITPYEGQRAYILQYMQMNGSLDKDLYIKVEVASVDAFQGREKDYIILSCVRANEQQAIGFLRDPRRLNVGLTRAKYGLVILGNPRSLARNTLWNHLLIHFREKGCLVEGTLDNLQLCTVQLVRPQPRKTERPMNAQFNVESEMGDFPKFQDFDAQSMVSFSGQIGDFGNAFVDNTELSSYINNEYWNFENFKSAFSQKQNRNEIDDRNLYQEEASHLNSNFARELQREEQKHELSKDFSNLGI
chain 2: MSFFGLENSGNARDGPLDFEESYKGYGEHELEENDYLNDETFGDNVQVGTDFDFGNPHSSGSSGNAIGGNGVGATARSYVAATAEGISGPRTDGTAAAGPLDLKPMESLWSTAPPPAMAPSPQSTMAPAPAPQQMAPLQPILSMQDLERQQRQMQQQFMNFHAMGHPQGLPQGPPQQQFPMQPASGQPGPSQFAPPPPPPGVNVNMNQMPMGPVQVPVQASPSPIGMSNTPSPGPVVGATKMPLQSGRRSKRDLSPEEQRRLQIRHAKVEKILKYSGLMTPRDKDFITRYQLSQIVTEDPYNEDFYFQVYKIIQRGGITSESNKGLIARAYLEHSGHRLGGRYKRTDIALQRMQSQVEKAVTVAKERPSKLKDQQAAAGNSSQDNKQANTVLGKISSTLNSKNPRRQLQIPRQQPSDPDALKDVTDSLTNVDLASSGSSSTGSSAAAVASKQRRRSSYAFNNGNGATNLNKSGGKKFILELIETVYEEILDLEANLRNGQQTDSTAMWEALHIDDSSYDVNPFISMLSFDKGIKIMPRIFNFLDKQQKLKILQKIFNELSHLQIIILSSYKTTPKPTLTQLKKVDLFQMIILKIIVSFLSNNSNFIEIMGLLLQLIRNNNVSFLTTSKIGLNLITILISRAALIKQDSSRSNILSSPEISTWNEIYDKLFTSLESKIQLIFPPREYNDHIMRLQNDKFMDEAYIWQFLASLALSGKLNHQRIIIDEVRDEIFATINEAETLQKKEKELSVLPQRSQELDTELKSIIYNKEKLYQDLNLFLNVMGLVYRDGEISELK
B2: Upf1-SmBiT [S. cerevisiae] / Dbp2 [S. cerevisiae] (parent)
chain 1: B1 chain 1
chain 2: MTYGGRDQQYNKTNYKSRGGDFRGGRNSDRNSYNDRPQGGNYRGGFGGRSNYNQPQELIKPNWDEELPKLPTFEKNFYVEHESVRDRSDSEIAQFRKENEMTISGHDIPKPITTFDEAGFPDYVLNEVKAEGFDKPTGIQCQGWPMALSGRDMVGIAATGSGKTLSYCLPGIVHINAQPLLAPGDGPIVLVLAPTRELAVQIQTECSKFGHSSRIRNTCVYGGVPKSQQIRDLSRGSEIVIATPGRLIDMLEIGKTNLKRVTYLVLDEADRMLDMGFEPQIRKIVDQIRPDRQTLMWSATWPKEVKQLAADYLNDPIQVQVGSLELSASHNITQIVEVVSDFEKRDRLNKYLETASQDNEYKTLIFASTKRMCDDITKYLREDGWPALAIHGDKDQRERDWVLQEFRNGRSPIMVATDVAARGIDVKGINYVINYDMPGNIEDYVHRIGRTGRAGATGTAISFFTEQNKGLGAKLISIMREANQNIPPELLKYDRRSYGGGHPRYGGGRGGRGGYGRRGGYGGGRGGYGGNRQRDGGWGNRGRSNY
B3: Upf1-SmBiT [S. cerevisiae] / Edc3 [S. cerevisiae] (parent)
chain 1: B1 chain 1
chain 2: MSQFVGFGVQVELKDGKLIQGKIAKATSKGLTLNDVQFGDGGKSQAFKVRASRLKDLKVLTVASQSGKRKQQRQQQQQNDYNQNRGEHIDWQDDDVSKIKQQEDFDFQRNLGMFNKKDVFAQLKQNDDILPENRLQGHNRKQTQLQQNNYQNDELVIPDAKKDSWNKISSRNEQSTHQSQPQQDAQDDLVLEDDEHEYDVDDIDDPKYLPITQSLNITHLIHSATNSPSINDKTKGTVINDKDQVLAKLGQMIISQSRSNSTSLPAANKQTTIRSKNTKQNIPMATPVQLLEMESITSEFFSINSAGLLENFAVNASFFLKQKLGGRARLRLQNSNPEPLVVILASDSNRSGAKALALGRHLCQTGHIRVITLFTCSQNELQDSMVKKQTDIYKKCGGKIVNSVSSLESAMETLNSPVEIVIDAMQGYDCTLSDLAGTSEVIESRIKSMISWCNKQRGSTKVWSLDIPNGFDAGSGMPDIFFSDRIEATGIICSGWPLIAINNLIANLPSLEDAVLIDIGIPQGAYSQRTSLRKFQNCDLFVTDGSLLLDL

Variants of: B1
Test: NanoBiT (ratiometric protein-fragment complementation assay in live yeast)
Conditions: with Pat1 [S. cerevisiae]; four experimental replicates; read off a plot

screen value [log2] | Variant
-1.6 | chain 1 C122S

Variants of: B2
Test: as above
Conditions: with Dbp2 [S. cerevisiae]; four experimental replicates; read off a plot

screen value [log2] | Variant
2 | chain 1 C122S

Variants of: B3
Test: as above
Conditions: with Edc3 [S. cerevisiae]; four experimental replicates; read off a plot

screen value [log2] | Variant
-2.8 | chain 1 C122S
